Measurements from patent US11130793B2, “GLP-1/GLP-2 dual agonists” (Zealand Pharma A/S, priority 2016, dated 2021).
Square brackets hold non-standard residues; d marks the D form. Aib = CC(C)(N)C(=O)O

Legend:
[1] = molecular target: T1, human GLP-2 receptor (hGLP2-R) (human, UniProt O95838); test: cell-based or functional assay
T1 sequence: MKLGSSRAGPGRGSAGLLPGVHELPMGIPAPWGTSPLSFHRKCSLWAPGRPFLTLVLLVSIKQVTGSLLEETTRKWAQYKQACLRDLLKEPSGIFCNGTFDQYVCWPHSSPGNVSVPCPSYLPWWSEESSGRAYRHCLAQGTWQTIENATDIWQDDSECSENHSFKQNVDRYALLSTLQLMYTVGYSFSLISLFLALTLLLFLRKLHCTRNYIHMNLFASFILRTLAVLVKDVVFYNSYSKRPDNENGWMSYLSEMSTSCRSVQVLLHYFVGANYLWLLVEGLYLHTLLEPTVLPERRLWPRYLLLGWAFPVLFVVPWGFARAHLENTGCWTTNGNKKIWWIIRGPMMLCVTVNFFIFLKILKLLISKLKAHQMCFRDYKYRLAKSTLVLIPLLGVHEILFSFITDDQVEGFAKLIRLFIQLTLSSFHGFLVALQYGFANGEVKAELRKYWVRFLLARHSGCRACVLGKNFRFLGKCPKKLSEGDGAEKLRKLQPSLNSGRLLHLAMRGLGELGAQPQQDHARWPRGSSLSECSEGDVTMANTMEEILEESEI

[2] = molecular target: human glucagon-like peptide 1 receptor (GLP-1R) (human, UniProt P43220); test: cell-based or functional assay

B1: Compound 10 (peptide)
peptide: H-H[Aib]EGTFTSELSTILDEQAARDFIAWLIAHKITD-OH
SMILES: CC[C@H](C)[C@H](NC(=O)[C@H](CC(C)C)NC(=O)[C@H](Cc1c[nH]c2ccccc12)NC(=O)[C@H](C)NC(=O)[C@@H](NC(=O)[C@H](Cc1ccccc1)NC(=O)[C@H](CC(=O)O)NC(=O)[C@H](CCCNC(=N)N)NC(=O)[C@H](C)NC(=O)[C@H](C)NC(=O)[C@H](CCC(N)=O)NC(=O)[C@H](CCC(=O)O)NC(=O)[C@H](CC(=O)O)NC(=O)[C@H](CC(C)C)NC(=O)[C@@H](NC(=O)[C@@H](NC(=O)[C@H](CO)NC(=O)[C@H](CC(C)C)NC(=O)[C@H](CCC(=O)O)NC(=O)[C@H](CO)NC(=O)[C@@H](NC(=O)[C@H](Cc1ccccc1)NC(=O)[C@@H](NC(=O)CNC(=O)[C@H](CCC(=O)O)NC(=O)C(C)(C)NC(=O)[C@@H](N)Cc1c[nH]cn1)[C@@H](C)O)[C@@H](C)O)[C@@H](C)O)[C@@H](C)CC)[C@@H](C)CC)C(=O)N[C@@H](C)C(=O)N[C@@H](Cc1c[nH]cn1)C(=O)N[C@@H](CCCCN)C(=O)N[C@H](C(=O)N[C@H](C(=O)N[C@@H](CC(=O)O)C(=O)O)[C@@H](C)O)[C@@H](C)CC
[1]
  EC50 GLP-2 (nM); cAMP AlphaScreen: 0.05 nM
[2]
  EC50 GLP-1 (nM); cAMP AlphaScreen: 0.005 nM

B2: Compound 13 (peptide)
peptide: H-H[Aib]EGTFTSELATILDEQAARDFIAWLQAHKITD-OH
SMILES: CC[C@H](C)[C@H](NC(=O)[C@H](Cc1ccccc1)NC(=O)[C@H](CC(=O)O)NC(=O)[C@H](CCCNC(=N)N)NC(=O)[C@H](C)NC(=O)[C@H](C)NC(=O)[C@H](CCC(N)=O)NC(=O)[C@H](CCC(=O)O)NC(=O)[C@H](CC(=O)O)NC(=O)[C@H](CC(C)C)NC(=O)[C@@H](NC(=O)[C@@H](NC(=O)[C@H](C)NC(=O)[C@H](CC(C)C)NC(=O)[C@H](CCC(=O)O)NC(=O)[C@H](CO)NC(=O)[C@@H](NC(=O)[C@H](Cc1ccccc1)NC(=O)[C@@H](NC(=O)CNC(=O)[C@H](CCC(=O)O)NC(=O)C(C)(C)NC(=O)[C@@H](N)Cc1c[nH]cn1)[C@@H](C)O)[C@@H](C)O)[C@@H](C)O)[C@@H](C)CC)C(=O)N[C@@H](C)C(=O)N[C@@H](Cc1c[nH]c2ccccc12)C(=O)N[C@@H](CC(C)C)C(=O)N[C@@H](CCC(N)=O)C(=O)N[C@@H](C)C(=O)N[C@@H](Cc1c[nH]cn1)C(=O)N[C@@H](CCCCN)C(=O)N[C@H](C(=O)N[C@H](C(=O)N[C@@H](CC(=O)O)C(=O)O)[C@@H](C)O)[C@@H](C)CC
[1]
  EC50 GLP-2 (nM); cAMP AlphaScreen: 0.083 nM
[2]
  EC50 GLP-1 (nM); cAMP AlphaScreen: 0.016 nM

B3: Compound 12 (peptide)
peptide: H-H[Aib]EGTFTSELATILDEQAARDFIAWLHAHKITD-OH
SMILES: CC[C@H](C)[C@H](NC(=O)[C@H](Cc1ccccc1)NC(=O)[C@H](CC(=O)O)NC(=O)[C@H](CCCNC(=N)N)NC(=O)[C@H](C)NC(=O)[C@H](C)NC(=O)[C@H](CCC(N)=O)NC(=O)[C@H](CCC(=O)O)NC(=O)[C@H](CC(=O)O)NC(=O)[C@H](CC(C)C)NC(=O)[C@@H](NC(=O)[C@@H](NC(=O)[C@H](C)NC(=O)[C@H](CC(C)C)NC(=O)[C@H](CCC(=O)O)NC(=O)[C@H](CO)NC(=O)[C@@H](NC(=O)[C@H](Cc1ccccc1)NC(=O)[C@@H](NC(=O)CNC(=O)[C@H](CCC(=O)O)NC(=O)C(C)(C)NC(=O)[C@@H](N)Cc1c[nH]cn1)[C@@H](C)O)[C@@H](C)O)[C@@H](C)O)[C@@H](C)CC)C(=O)N[C@@H](C)C(=O)N[C@@H](Cc1c[nH]c2ccccc12)C(=O)N[C@@H](CC(C)C)C(=O)N[C@@H](Cc1c[nH]cn1)C(=O)N[C@@H](C)C(=O)N[C@@H](Cc1c[nH]cn1)C(=O)N[C@@H](CCCCN)C(=O)N[C@H](C(=O)N[C@H](C(=O)N[C@@H](CC(=O)O)C(=O)O)[C@@H](C)O)[C@@H](C)CC
[1]
  EC50 GLP-2 (nM); cAMP AlphaScreen: 0.076 nM
[2]
  EC50 GLP-1 (nM); cAMP AlphaScreen: 0.055 nM

B4: Compound 16 (peptide)
peptide: H-H[Aib]EGTFTSELATILDEQAARDFIAWLIKHKITD-OH
SMILES: CC[C@H](C)[C@H](NC(=O)[C@H](Cc1ccccc1)NC(=O)[C@H](CC(=O)O)NC(=O)[C@H](CCCNC(=N)N)NC(=O)[C@H](C)NC(=O)[C@H](C)NC(=O)[C@H](CCC(N)=O)NC(=O)[C@H](CCC(=O)O)NC(=O)[C@H](CC(=O)O)NC(=O)[C@H](CC(C)C)NC(=O)[C@@H](NC(=O)[C@@H](NC(=O)[C@H](C)NC(=O)[C@H](CC(C)C)NC(=O)[C@H](CCC(=O)O)NC(=O)[C@H](CO)NC(=O)[C@@H](NC(=O)[C@H](Cc1ccccc1)NC(=O)[C@@H](NC(=O)CNC(=O)[C@H](CCC(=O)O)NC(=O)C(C)(C)NC(=O)[C@@H](N)Cc1c[nH]cn1)[C@@H](C)O)[C@@H](C)O)[C@@H](C)O)[C@@H](C)CC)C(=O)N[C@@H](C)C(=O)N[C@@H](Cc1c[nH]c2ccccc12)C(=O)N[C@@H](CC(C)C)C(=O)N[C@H](C(=O)N[C@@H](CCCCN)C(=O)N[C@@H](Cc1c[nH]cn1)C(=O)N[C@@H](CCCCN)C(=O)N[C@H](C(=O)N[C@H](C(=O)N[C@@H](CC(=O)O)C(=O)O)[C@@H](C)O)[C@@H](C)CC)[C@@H](C)CC
[1]
  EC50 GLP-2 (nM); cAMP AlphaScreen: 0.026 nM
[2]
  EC50 GLP-1 (nM); cAMP AlphaScreen: 0.006 nM

B5: Compound 15 (peptide)
peptide: H-H[Aib]EGTFTSELATILDEQAARDFIAWLIQHKITD-OH
SMILES: CC[C@H](C)[C@H](NC(=O)[C@H](Cc1ccccc1)NC(=O)[C@H](CC(=O)O)NC(=O)[C@H](CCCNC(=N)N)NC(=O)[C@H](C)NC(=O)[C@H](C)NC(=O)[C@H](CCC(N)=O)NC(=O)[C@H](CCC(=O)O)NC(=O)[C@H](CC(=O)O)NC(=O)[C@H](CC(C)C)NC(=O)[C@@H](NC(=O)[C@@H](NC(=O)[C@H](C)NC(=O)[C@H](CC(C)C)NC(=O)[C@H](CCC(=O)O)NC(=O)[C@H](CO)NC(=O)[C@@H](NC(=O)[C@H](Cc1ccccc1)NC(=O)[C@@H](NC(=O)CNC(=O)[C@H](CCC(=O)O)NC(=O)C(C)(C)NC(=O)[C@@H](N)Cc1c[nH]cn1)[C@@H](C)O)[C@@H](C)O)[C@@H](C)O)[C@@H](C)CC)C(=O)N[C@@H](C)C(=O)N[C@@H](Cc1c[nH]c2ccccc12)C(=O)N[C@@H](CC(C)C)C(=O)N[C@H](C(=O)N[C@@H](CCC(N)=O)C(=O)N[C@@H](Cc1c[nH]cn1)C(=O)N[C@@H](CCCCN)C(=O)N[C@H](C(=O)N[C@H](C(=O)N[C@@H](CC(=O)O)C(=O)O)[C@@H](C)O)[C@@H](C)CC)[C@@H](C)CC
[1]
  EC50 GLP-2 (nM); cAMP AlphaScreen: 0.038 nM
[2]
  EC50 GLP-1 (nM); cAMP AlphaScreen: 0.005 nM

B6: Compound 14 (peptide)
peptide: H-H[Aib]EGTFTSELATILDEQAARDFIAWLYAHKITD-OH
SMILES: CC[C@H](C)[C@H](NC(=O)[C@H](Cc1ccccc1)NC(=O)[C@H](CC(=O)O)NC(=O)[C@H](CCCNC(=N)N)NC(=O)[C@H](C)NC(=O)[C@H](C)NC(=O)[C@H](CCC(N)=O)NC(=O)[C@H](CCC(=O)O)NC(=O)[C@H](CC(=O)O)NC(=O)[C@H](CC(C)C)NC(=O)[C@@H](NC(=O)[C@@H](NC(=O)[C@H](C)NC(=O)[C@H](CC(C)C)NC(=O)[C@H](CCC(=O)O)NC(=O)[C@H](CO)NC(=O)[C@@H](NC(=O)[C@H](Cc1ccccc1)NC(=O)[C@@H](NC(=O)CNC(=O)[C@H](CCC(=O)O)NC(=O)C(C)(C)NC(=O)[C@@H](N)Cc1c[nH]cn1)[C@@H](C)O)[C@@H](C)O)[C@@H](C)O)[C@@H](C)CC)C(=O)N[C@@H](C)C(=O)N[C@@H](Cc1c[nH]c2ccccc12)C(=O)N[C@@H](CC(C)C)C(=O)N[C@@H](Cc1ccc(O)cc1)C(=O)N[C@@H](C)C(=O)N[C@@H](Cc1c[nH]cn1)C(=O)N[C@@H](CCCCN)C(=O)N[C@H](C(=O)N[C@H](C(=O)N[C@@H](CC(=O)O)C(=O)O)[C@@H](C)O)[C@@H](C)CC
[1]
  EC50 GLP-2 (nM); cAMP AlphaScreen: 0.049 nM
[2]
  EC50 GLP-1 (nM); cAMP AlphaScreen: 0.021 nM

B7: Compound 11 (peptide)
peptide: H-H[Aib]EGTFTSELATILDGKAARDFIAWLIAHKITD-OH
SMILES: CC[C@H](C)[C@H](NC(=O)[C@H](CC(C)C)NC(=O)[C@H](Cc1c[nH]c2ccccc12)NC(=O)[C@H](C)NC(=O)[C@@H](NC(=O)[C@H](Cc1ccccc1)NC(=O)[C@H](CC(=O)O)NC(=O)[C@H](CCCNC(=N)N)NC(=O)[C@H](C)NC(=O)[C@H](C)NC(=O)[C@H](CCCCN)NC(=O)CNC(=O)[C@H](CC(=O)O)NC(=O)[C@H](CC(C)C)NC(=O)[C@@H](NC(=O)[C@@H](NC(=O)[C@H](C)NC(=O)[C@H](CC(C)C)NC(=O)[C@H](CCC(=O)O)NC(=O)[C@H](CO)NC(=O)[C@@H](NC(=O)[C@H](Cc1ccccc1)NC(=O)[C@@H](NC(=O)CNC(=O)[C@H](CCC(=O)O)NC(=O)C(C)(C)NC(=O)[C@@H](N)Cc1c[nH]cn1)[C@@H](C)O)[C@@H](C)O)[C@@H](C)O)[C@@H](C)CC)[C@@H](C)CC)C(=O)N[C@@H](C)C(=O)N[C@@H](Cc1c[nH]cn1)C(=O)N[C@@H](CCCCN)C(=O)N[C@H](C(=O)N[C@H](C(=O)N[C@@H](CC(=O)O)C(=O)O)[C@@H](C)O)[C@@H](C)CC
[1]
  EC50 GLP-2 (nM); cAMP AlphaScreen: 0.085 nM
[2]
  EC50 GLP-1 (nM); cAMP AlphaScreen: 0.011 nM
